Read-outs that look alike come from different tables or passages of the source.
Assays:
[1] = Enzyme kinetics, apparent Km, Type IV substrate; type: biochemical; conditions: Type IV Galβ(1,4)Gal; lysates of transfected COS cells
Method: (§1) Cells were washed twice with phosphate buffered saline and lysed in either 1% Triton X100/100 mM Tris pH7.0 or 1% Triton X100/100 mM sodium cacodylate pH 6.5/25 mM MnCl2 at 4° C. for 30 min, lysates centrifuged and the supernatant collected and stored at −70° C. Protein concentration was determined by the Bradford test, using bovine serum albumin as a standard; 5-20 μg of cell extract was used per transferase assay. The assay for α-1,2 fucosyltransferase involved mixing cell extracts and acceptor (75 mM pheny-β-Dgalactoside (Sigma)) in 50 μl 50 mM MOPS (3-[N-Morpholino]propanesulphonic acid) pH 6.5; 20 mM MnCl2; 5 mM ATP; 3 μM GDP[^14C]-Fuc (specific activity 287 mCi/mmol, Amersham International plc, Amersham, UK) and incubation for 2 h at 37° C. The reaction was terminated by the addition of ethanol, and the incorporated ^14C-Fuc determined by liquid scintillation counting after separation in Sep-Pak C18 cartridges (Waters-Millipore, Millford, Mass.). In all cases the parallel reactions were performed in the absence of added acceptor molecules, to allow for the calculation of specific incorporation.
(§2) Cell lysates prepared from COS cells transfected in the manner described in Example 1 with pFUT2 (pig Se), pFUT1 (pig H transferase), or with vector alone were assayed for α(1,2)-fucosyltransferase activity, and the kinetic values were calculated. […]

[2] = Enzyme kinetics, apparent Km, Type II substrate; type: biochemical; conditions: Type II Galβ(1,4)GlcNAc; lysates of transfected COS cells
Method: as §1, §2

[3] = system: α(1,2)-fucosyltransferase; test: α(1,2)-fucosyltransferase activity in lysates of transfected COS cells; type: biochemical, pig; conditions: mock-transfected baseline 1.1
Method: as §1
Cell lysates prepared from COS cells transfected with pFUT2 and pFUT1 were assayed for α(1,2)-fucosyltransferase activity. […] The enzyme activity measured in these lysates reflects the expression of H substance on the cell surface as shown in Example 2.

[4] = Enzyme kinetics, apparent Km, lactose; type: biochemical; conditions: Lactose Galβ(1,4)Glc; lysates of transfected COS cells
Method: as §1, §2

[5] = Enzyme kinetics, apparent Km, Type I substrate; type: biochemical; conditions: Type I Galβ(1,3)GlcNAc; lysates of transfected COS cells
Method: as §1, §2

[6] = Enzyme kinetics, apparent Km, Type III substrate; type: biochemical; conditions: Type III Galβ(1,3)GalNAc; lysates of transfected COS cells
Method: as §1, §2

[7] = Type III Galβ(1,3)GalNAc; literature ref 34; read-out: Km reported; cited from earlier work
[8] = Type I Galβ(1,3)GlcNAc; literature refs 34, 35; read-out: Km reported; cited from earlier work
[9] = Type II Galβ(1,4)GlcNAc; literature refs 34, 37; read-out: Km reported; cited from earlier work

B1: pFUT1: pig H type α(1,2)-fucosyltransferase expressed in COS cells; label also used for the plasmid encoding it (protein, UniProt Q29043 1-365, looked up)
Galactoside …: MWVPSRRHLCLTFLLVCVLAAIFFLNVYQDLFYSGLDLLALCPDHNVVSSPVAIFCLAGTPVHPNASDSCPKHPASLSGTWTIYPDGRFGNQMGQYATLLALAQLNGRQAFIQPAMHAVLAPVFRITLPVLAPEVDRHAPWRELELHDWMSEDYAHLKEPWLKLTGFPCSWTFFHHLREQIRSEFTLHDHLRQEAQGVLSQFRLPRTGDRPSTFVGVHVRRGDYLRVMPKRWKGVVGDGAYLQQAMDWFRARYEAPVFVVTSNGMEWCRKNIDTSRGDVIFAGDGREAAPARDFALLVQCNHTIMTIGTFGFWAAYLAGGDTIYLANFTLPTSSFLKIFKPEAAFLPEWVGINADLSPLQMLAGP
With B1 as the molecule, how does the Km [1] read?
Its Km is 4.2 mM.

And the Km [2]?
Its Km is 3.7 mM.

What about the “α(1,2)-fucosyltransferase activity” value [3] of the same molecule?
The value was 140.0 nmol/h/mg.

What about the Km [4] of the same molecule?
Its Km is 1.9 mM.

What about the Km [5] of the same molecule?
Its Km is 6 mM.

What about the Km [6] of the same molecule?
Its Km is 14 mM.

B2: rabbit FUT2: rabbit α(1,2)-fucosyltransferase FUT2, literature homologue (protein, UniProt Q10983 1-354, looked up)
Galactoside …: MRFAPDYVLCPPTATRRLRATHPSVSTIYFLFTIFVVSTVFHCHQRLALVPAPWAYSARVVVVPGHLPREGMWTINAMGRLGNQMGEYATLYALAKENGRPAYIPAQMHSTLAPIFRISLPVLHSSTASRVPWQNYHLNDWMEERYRHIPVPYVRLTGYPCSWTFYHHLRHEILREFTLHDHVREEAQAFLRGLRVNGSRPSTFVGVHVRRGDYVRVMPQVWKGVVADRGYLEQALDWFRAPTAPPVFVVTSNGMAWCRENIDASRGDVVFAGNGLEGSPAKDFALLTQCNHTVMTIGTFGFWAAYLTGGDTVYLANYTAPDSPFHLVFKPEAAFLPEWVGITANMGRALWSGL
What does the source list for B2?
Km [7]: 1 mM; Km [8]: 1.5 mM; Km [9]: 6.7 mM

B3: human FUT1: human α(1,2)-fucosyltransferase FUT1 (H transferase), literature homologue (protein, UniProt P19526 1-365, looked up)
Galactoside …: MWLRSHRQLCLAFLLVCVLSVIFFLHIHQDSFPHGLGLSILCPDRRLVTPPVAIFCLPGTAMGPNASSSCPQHPASLSGTWTVYPNGRFGNQMGQYATLLALAQLNGRRAFILPAMHAALAPVFRITLPVLAPEVDSRTPWRELQLHDWMSEEYADLRDPFLKLSGFPCSWTFFHHLREQIRREFTLHDHLREEAQSVLGQLRLGRTGDRPRTFVGVHVRRGDYLQVMPQRWKGVVGDSAYLRQAMDWFRARHEAPVFVVTSNGMEWCKENIDTSQGDVTFAGDGQEATPWKDFALLTQCNHTIMTIGTFGFWAAYLAGGDTVYLANFTLPDSEFLKIFKPEAAFLPEWVGINADLSPLWTLAKP
With B3 as the molecule, how does the Km [8] read?
The Km was 2 mM.

And the Km [9]?
Its Km is 1.9 mM.

B4: human FUT2: human α(1,2)-fucosyltransferase FUT2 (secretor), literature homologue (protein, UniProt Q10981 1-343, looked up)
Galactoside …: MLVVQMPFSFPMAHFILFVFTVSTIFHVQQRLAKIQAMWELPVQIPVLASTSKALGPSQLRGMWTINAIGRLGNQMGEYATLYALAKMNGRPAFIPAQMHSTLAPIFRITLPVLHSATASRIPWQNYHLNDWMEEEYRHIPGEYVRFTGYPCSWTFYHHLRQEILQEFTLHDHVREEAQKFLRGLQVNGSRPGTFVGVHVRRGDYVHVMPKVWKGVVADRRYLQQALDWFRARYSSLIFVVTSNGMAWCRENIDTSHGDVVFAGDGIEGSPAKDFALLTQCNHTIMTIGTFGIWAAYLTGGDTIYLANYTLPDSPFLKIFKPEAAFLPEWTGIAADLSPLLKH
With B4 as the molecule, how does the Km [8] read?
The Km was 1 mM.

And the Km [9]?
The Km was 5.7 mM.

B5: pFUT2: pig Secretor type α(1,2)-fucosyltransferase expressed in COS cells; label also used for the plasmid encoding it (protein, UniProt Q10982 1-340, looked up)
Galactoside …: MLSMQASFFFPTGPFILFVFTASTIFHLQQRMVKIQPTWELQMVTQVTTESPSSPQLKGMWTINAIGRLGNQMGEYATLYALARMNGRPAFIPPEMHSTLAPIFRITLPVLHASTARRIPWQNYHLNDWMEERYRHIPGEYVRLTGYPCSWTFYHHLRTEILREFTLHNHVREEAQDFLRGLRVNGSRPSTYVGVHVRRGDYVHVMPNVWKGVVADRRYLEQALDWFRARYRSPVFVVSSNGMAWCRENINASRGDVVFAGNGIEGSPAKDFALLTQCNHTVMTIGTFGIWAAYLAGGETIYLANYTLPDSPFLKLFKPEAAFLPEWIGIEADLSPLLKH
Which Km [1] does the source give for B5 here?
The Km was 1.5 mM.

And the Km [2]?
Its Km is 4.4 mM.

What about the “α(1,2)-fucosyltransferase activity” value [3] of the same molecule?
Its value is 151.1 nmol/h/mg.

And the Km [4]?
The Km was 7.4 mM.

And the Km [5]?
Its Km is 1.3 mM.

What about the Km [6] of the same molecule?
Its Km is 0.2 mM.

B6: rabbit FUT1: rabbit α(1,2)-fucosyltransferase FUT1, literature homologue (protein, UniProt Q10979 1-373, looked up)
Galactoside …: MWPPSRRQLCLAFLLVCALSAFSFLLHLHQDLFRNGLALSLPCLERQPVPAPVAIVCLPVTSPASNASSCAGRPAAPSGIWTIHPDGRFGNQMGQYATLLALAQLNGRRAFILPAMHAALAPVFRITLPVLAPEVNRRTSWKQLLLHDWMSEEYSRLEDPFLKFTGFPCSWTFFHHVREQIRREFTLHDHLREEAQRLLGKLRLGRTGARPRTFVGVHVRRGDYLQVMPQRWKGVVGDRAYLQQAMDWFRARHEAPIFVVTSNGMKWCWENIDASRGDVVFAGNGLESSPAKDFALLTQCNHTVMTIGTFGFWAAYLAGGDTVYLANFTLPDSEFLKIFKPEAAFLPEWVGINADLSPVRTLSGSWRPWRFLG
What does the source list for B6?
Km [7]: 5.8 mM; Km [8]: 3.1 mM; Km [9]: 4.2 mM

Source: patent US6399758B1, “Nucleic acids for reducing carbohydrate epitopes” (The Austin Research Institute, priority 1996, dated 2002)
